In US20180022819A1 (APTEVO RESEARCH AND DEVELOPMENT, published 2018):

Target: prostate-specific membrane antigen (PSMA) (human, UniProt Q04609 1-750)
Test: cell-based or functional assay

Sequence of prostate-specific membrane antigen (PSMA) (Q04609 whole entry): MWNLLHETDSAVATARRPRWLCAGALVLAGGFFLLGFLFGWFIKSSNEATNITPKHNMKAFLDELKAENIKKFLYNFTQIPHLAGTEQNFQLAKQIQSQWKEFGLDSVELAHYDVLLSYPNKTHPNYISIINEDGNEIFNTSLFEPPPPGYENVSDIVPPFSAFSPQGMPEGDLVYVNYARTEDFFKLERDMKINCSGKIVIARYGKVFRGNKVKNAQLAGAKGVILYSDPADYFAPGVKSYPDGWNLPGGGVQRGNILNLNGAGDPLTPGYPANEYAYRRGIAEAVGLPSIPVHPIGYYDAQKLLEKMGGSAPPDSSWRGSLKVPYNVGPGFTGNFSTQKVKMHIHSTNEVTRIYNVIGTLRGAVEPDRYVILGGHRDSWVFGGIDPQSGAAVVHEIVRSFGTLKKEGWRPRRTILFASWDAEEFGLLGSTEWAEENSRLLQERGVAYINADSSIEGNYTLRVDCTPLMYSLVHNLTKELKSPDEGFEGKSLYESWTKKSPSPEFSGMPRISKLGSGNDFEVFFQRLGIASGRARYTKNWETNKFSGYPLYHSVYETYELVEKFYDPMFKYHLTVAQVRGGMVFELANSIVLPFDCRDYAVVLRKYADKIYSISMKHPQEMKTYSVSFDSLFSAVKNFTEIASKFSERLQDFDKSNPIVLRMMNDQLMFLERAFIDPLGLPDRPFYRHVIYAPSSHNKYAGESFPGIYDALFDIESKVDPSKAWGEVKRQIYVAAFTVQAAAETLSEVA

- EC50 of % live cells, GFP-LNCaP growth inhibition assay, 4 days with primary human T-cells (3:1): 15 pM
- EC50 of % specific lysis, 51Cr release assay, 4 hours, untreated 22Rv1 target cells with donor T-cells (5:1): 0.8 pM
B1: humanized TSC249 (huVL-VH#2 107-1A4 scFv-Fc-DRA222 scFv) (bispecific antibody)
chain: DIQMTQSPSAMSASVGDRVTITCRASKSISKYLAWFQQKPGKVPKLRIHSGSTLQSGVPSRFSGSGSGTEFTLTISSLQPEDFATYYCQQHIEYPWTFGQGTKVEIKRGGGGSGGGGSGGGGSQVQLVQSGAEVKKPGASVKVSCKASGYTFTDYYMHWVRQAPGQGLEWMGYFNPYNDYTRYAQKFQGRVTMTRDTSISTAYMELSSLRSDDTAVYYCARSDGYYDAMDYWGQGTTVTVSSSEPKSSDKTHTCPPCPAPEAAGAPSVFLFPPKPKDTLMISRTPEVTCVVVDVSHEDPEVKFNWYVDGVEVHNAKTKPREEQYNSTYRVVSVLTVLHQDWLNGKAYACAVSNKALPAPIEKTISKAKGQPREPQVYTLPPSRDELTKNQVSLTCLVKGFYPSDIAVEWESNGQPENNYKTTPPVLDSDGSFFLYSKLTVDKSRWQQGNVFSCSVMHEALHNHYTQKSLSLSPGQRHNNSSLNTGTQMAGHSPNSQVQLVESGGGVVQPGRSLRLSCKASGYTFTRSTMHWVRQAPGQGLEWIGYINPSSAYTNYNQKFKDRFTISADKSKSTAFLQMDSLRPEDTGVYFCARPQVHYDYNGFPYWGQGTPVTVSSGGGGSGGGGSGGGGSAQDIQMTQSPSSLSASVGDRVTMTCSASSSVSYMNWYQQKPGKAPKRWIYDSSKLASGVPARFSGSGSGTDYTLTISSLQPEDFATYYCQQWSRNPPTFGGGTKLQITSSS
